T1: PUF4 RNA-binding domain (Saccharomyces cerevisiae, UniProt P25339 537-888)
T1 sequence: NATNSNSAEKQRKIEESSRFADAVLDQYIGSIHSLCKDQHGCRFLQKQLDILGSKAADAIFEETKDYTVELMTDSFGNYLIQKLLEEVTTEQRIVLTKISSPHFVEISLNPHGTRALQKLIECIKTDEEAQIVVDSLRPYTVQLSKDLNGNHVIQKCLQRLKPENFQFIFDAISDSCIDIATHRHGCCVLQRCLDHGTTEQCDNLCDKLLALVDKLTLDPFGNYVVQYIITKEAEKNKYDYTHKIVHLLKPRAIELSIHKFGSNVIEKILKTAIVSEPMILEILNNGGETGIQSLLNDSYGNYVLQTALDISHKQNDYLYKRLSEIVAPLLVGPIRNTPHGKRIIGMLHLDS


biological target: T1, PUF4 RNA-binding domain; experiment: Mg; RNA-MaP; 20 mM Na-HEPES pH 7.4, 30 mM KOAc, 0.75 mM MgCl2, 0.1% Tween-20, 5% glycerol, 0.1 mg/mL BSA, 2 mM DTT; 25 C; 0.0125-409.6 nM protein; settings: tags: N-His6-TEV cleaved; C-SNAP kept, Cy3B-labelled; label: tethered on chip by stalled RNA polymerase

| Binder | Kd [µM] |
| --- | --- |
| Ie_S2_P5E.1_K5.1_C5.1_H5.1_[+2CC]_A5.1_F5.1_T5.1 (ssRNA) RNA: UUUGAUUAAUAUGAUAUCGUUCUUUCUUGCCUAUUAUUAUUCUUUCUCGAUAUCAUAUUAAUCUUU | 0.679 |
| Ie_S2_P5E.1_K5.1_C5.1_H5.1_[+2CT]_A5.1_F5.1_T5.1 (ssRNA) RNA: UUUGAUUAAUAUGAUAUCGUUCUUUCUUGCUUAUUAUUAUUCUUUCUCGAUAUCAUAUUAAUCUUU | 0.725 |
| Ie_S2_P5E.1_K5.1_C5.1_H5.1_[+2TT]_A5.1_F5.1_T5.1 (ssRNA) RNA: UUUGAUUAAUAUGAUAUCGUUCUUUCUUGUUUAUUAUUAUUCUUUCUCGAUAUCAUAUUAAUCUUU | 0.00621 |
| Ib_S2_P3E.1_K3.1_C3.1_H3.1_[T1A]_[G2A]_A3.1_F3.1_T3.1 (ssRNA) RNA: UUUGAUUAAUAUGAUAUCGUUCUUUCUAAUAUAUAUUCUUUCUCGAUAUCAUAUUAAUCUUU | 0.889 |
| Ib_S2_P3E.1_K3.1_C3.1_H3.1_[T1G]_[A4G]_A3.1_F3.1_T3.1 (ssRNA) RNA: UUUGAUUAAUAUGAUAUCGUUCUUUCUGGUGUAUAUUCUUUCUCGAUAUCAUAUUAAUCUUU | 0.0107 |
| Ib_S2_P3E.1_K3.1_C3.1_H3.1_[T1C]_[T3C]_A3.1_F3.1_T3.1 (ssRNA) RNA: UUUGAUUAAUAUGAUAUCGUUCUUUCUCGCAUAUAUUCUUUCUCGAUAUCAUAUUAAUCUUU | > 2.3 |
| Ib_S2_P3E.1_K3.1_C3.1_H3.1_[T1G]_[A4C]_A3.1_F3.1_T3.1 (ssRNA) RNA: UUUGAUUAAUAUGAUAUCGUUCUUUCUGGUCUAUAUUCUUUCUCGAUAUCAUAUUAAUCUUU | > 2.3 |
| Ie_S2_P5E.1_K5.1_C5.1_H5.1_[+1TTT]_A5.1_F5.1_T5.1 (ssRNA) RNA: UUUGAUUAAUAUGAUAUCGUUCUUUCUUUUUGUAUUAUUAUUCUUUCUCGAUAUCAUAUUAAUCUUU | 0.0016 |
| Ie_S2_P5E.1_K5.1_C5.1_H5.1_[+4TCC]_A5.1_F5.1_T5.1 (ssRNA) RNA: UUUGAUUAAUAUGAUAUCGUUCUUUCUUGUAUCCUUAUUAUUCUUUCUCGAUAUCAUAUUAAUCUUU | 0.0026 |
| Ie_S2_P5E.1_K5.1_C5.1_H5.1_[+3TTC]_A5.1_F5.1_T5.1 (ssRNA) RNA: UUUGAUUAAUAUGAUAUCGUUCUUUCUUGUUUCAUUAUUAUUCUUUCUCGAUAUCAUAUUAAUCUUU | 0.00767 |
| Ie_S2_P5E.1_K5.1_C5.1_H5.1_[+2TCT]_A5.1_F5.1_T5.1 (ssRNA) RNA: UUUGAUUAAUAUGAUAUCGUUCUUUCUUGUCUUAUUAUUAUUCUUUCUCGAUAUCAUAUUAAUCUUU | 0.0111 |
| Ie_S2_P5E.1_K5.1_C5.1_H5.1_[+3TCC]_A5.1_F5.1_T5.1 (ssRNA) RNA: UUUGAUUAAUAUGAUAUCGUUCUUUCUUGUUCCAUUAUUAUUCUUUCUCGAUAUCAUAUUAAUCUUU | 0.0115 |
| Ie_S2_P5E.1_K5.1_C5.1_H5.1_[+2CTT]_A5.1_F5.1_T5.1 (ssRNA) RNA: UUUGAUUAAUAUGAUAUCGUUCUUUCUUGCUUUAUUAUUAUUCUUUCUCGAUAUCAUAUUAAUCUUU | 0.368 |
| Ie_S2_P5E.1_K5.1_C5.1_H5.1_[+2CTC]_A5.1_F5.1_T5.1 (ssRNA) RNA: UUUGAUUAAUAUGAUAUCGUUCUUUCUUGCUCUAUUAUUAUUCUUUCUCGAUAUCAUAUUAAUCUUU | 0.499 |
| Ie_S2_P5E.1_K5.1_C5.1_H5.1_[+4CTT]_A5.1_F5.1_T5.1 (ssRNA) RNA: UUUGAUUAAUAUGAUAUCGUUCUUUCUUGUACUUUUAUUAUUCUUUCUCGAUAUCAUAUUAAUCUUU | 0.00137 |
| Ie_S2_P5E.1_K5.1_C5.1_H5.1_[+3CTC]_A5.1_F5.1_T5.1 (ssRNA) RNA: UUUGAUUAAUAUGAUAUCGUUCUUUCUUGUCUCAUUAUUAUUCUUUCUCGAUAUCAUAUUAAUCUUU | 0.0101 |
| Ie_S2_P5E.1_K5.1_C5.1_H5.1_[+3CCC]_A5.1_F5.1_T5.1 (ssRNA) RNA: UUUGAUUAAUAUGAUAUCGUUCUUUCUUGUCCCAUUAUUAUUCUUUCUCGAUAUCAUAUUAAUCUUU | 0.0244 |
| Ie_S2_P5E.1_K5.1_C5.1_H5.1_[+2TTC]_A5.1_F5.1_T5.1 (ssRNA) RNA: UUUGAUUAAUAUGAUAUCGUUCUUUCUUGUUCUAUUAUUAUUCUUUCUCGAUAUCAUAUUAAUCUUU | 0.00691 |
| Ie_S2_P5E.1_K5.1_C5.1_H5.1_[+4TTC]_A5.1_F5.1_T5.1 (ssRNA) RNA: UUUGAUUAAUAUGAUAUCGUUCUUUCUUGUAUUCUUAUUAUUCUUUCUCGAUAUCAUAUUAAUCUUU | 0.00296 |
| Ie_S2_P5E.1_K5.1_C5.1_H5.1_[+3TTT]_A5.1_F5.1_T5.1 (ssRNA) RNA: UUUGAUUAAUAUGAUAUCGUUCUUUCUUGUUUUAUUAUUAUUCUUUCUCGAUAUCAUAUUAAUCUUU | 0.0113 |
| Ie_S2_P5E.1_K5.1_C5.1_H5.1_[+2TCC]_A5.1_F5.1_T5.1 (ssRNA) RNA: UUUGAUUAAUAUGAUAUCGUUCUUUCUUGUCCUAUUAUUAUUCUUUCUCGAUAUCAUAUUAAUCUUU | 0.0222 |
| Ie_S2_P5E.1_K5.1_C5.1_H5.1_A5.1_[+5TTT]_F5.1_T5.1 (ssRNA) RNA: UUUGAUUAAUAUGAUAUCGUUCUUUCUUGUAUUUUUAUUAUUCUUUCUCGAUAUCAUAUUAAUCUUU | 0.0016 |

| Binder | Kd [µM] |
| --- | --- |
| Ie_S2_P5E.1_K5.1_C5.1_H5.1_[+1CTCTC]_A5.1_F5.1_T5.1 (ssRNA) RNA: UUUGAUUAAUAUGAUAUCGUUCUUUCUUCUCUCGUAUUAUUAUUCUUUCUCGAUAUCAUAUUAAUCUUU | 0.204 |
| Ie_S2_P5E.1_K5.1_C5.1_H5.1_[+4TCTCT]_A5.1_F5.1_T5.1 (ssRNA) RNA: UUUGAUUAAUAUGAUAUCGUUCUUUCUUGUAUCUCUUUAUUAUUCUUUCUCGAUAUCAUAUUAAUCUUU | 0.0105 |
| Ie_S2_P5E.1_K5.1_C5.1_H5.1_[+3TTCCT]_A5.1_F5.1_T5.1 (ssRNA) RNA: UUUGAUUAAUAUGAUAUCGUUCUUUCUUGUUUCCUAUUAUUAUUCUUUCUCGAUAUCAUAUUAAUCUUU | 0.0463 |
| Ie_S2_P5E.1_K5.1_C5.1_H5.1_[+2TTCCT]_A5.1_F5.1_T5.1 (ssRNA) RNA: UUUGAUUAAUAUGAUAUCGUUCUUUCUUGUUCCUUAUUAUUAUUCUUUCUCGAUAUCAUAUUAAUCUUU | 0.0274 |
| Ie_S2_P5E.1_K5.1_C5.1_H5.1_[+3CCTCT]_A5.1_F5.1_T5.1 (ssRNA) RNA: UUUGAUUAAUAUGAUAUCGUUCUUUCUUGUCCUCUAUUAUUAUUCUUUCUCGAUAUCAUAUUAAUCUUU | 0.0353 |
| Ie_S2_P5E.1_K5.1_C5.1_H5.1_[+2TCTCT]_A5.1_F5.1_T5.1 (ssRNA) RNA: UUUGAUUAAUAUGAUAUCGUUCUUUCUUGUCUCUUAUUAUUAUUCUUUCUCGAUAUCAUAUUAAUCUUU | 0.0393 |
| Ie_S2_P5E.1_K5.1_C5.1_H5.1_[+2CTCTC]_A5.1_F5.1_T5.1 (ssRNA) RNA: UUUGAUUAAUAUGAUAUCGUUCUUUCUUGCUCUCUAUUAUUAUUCUUUCUCGAUAUCAUAUUAAUCUUU | 0.725 |
| Ie_S2_P5E.1_K5.1_C5.1_H5.1_[+2CCTCT]_A5.1_F5.1_T5.1 (ssRNA) RNA: UUUGAUUAAUAUGAUAUCGUUCUUUCUUGCCUCUUAUUAUUAUUCUUUCUCGAUAUCAUAUUAAUCUUU | > 2.3 |
| Ie_S2_P5E.1_K5.1_C5.1_H5.1_[+3CCCTT]_A5.1_F5.1_T5.1 (ssRNA) RNA: UUUGAUUAAUAUGAUAUCGUUCUUUCUUGUCCCUUAUUAUUAUUCUUUCUCGAUAUCAUAUUAAUCUUU | 0.0546 |
| Ie_S2_P5E.1_K5.1_C5.1_H5.1_[+1CCTCT]_A5.1_F5.1_T5.1 (ssRNA) RNA: UUUGAUUAAUAUGAUAUCGUUCUUUCUUCCUCUGUAUUAUUAUUCUUUCUCGAUAUCAUAUUAAUCUUU | 0.00123 |
| Ie_S2_P5E.1_K5.1_C5.1_H5.1_[+1CCCTT]_A5.1_F5.1_T5.1 (ssRNA) RNA: UUUGAUUAAUAUGAUAUCGUUCUUUCUUCCCUUGUAUUAUUAUUCUUUCUCGAUAUCAUAUUAAUCUUU | 0.0012 |
| Ie_S2_P5E.1_K5.1_C5.1_H5.1_[+4CTCTC]_A5.1_F5.1_T5.1 (ssRNA) RNA: UUUGAUUAAUAUGAUAUCGUUCUUUCUUGUACUCUCUUAUUAUUCUUUCUCGAUAUCAUAUUAAUCUUU | 0.00793 |
| Ie_S2_P5E.1_K5.1_C5.1_H5.1_[+2T]_A5.1_F5.1_T5.1 (ssRNA) RNA: UUUGAUUAAUAUGAUAUCGUUCUUUCUUGUUAUUAUUAUUCUUUCUCGAUAUCAUAUUAAUCUUU | 0.026 |
| Ie_S2_P5E.1_K5.1_C5.1_H5.1_[+1CTCT]_A5.1_F5.1_T5.1 (ssRNA) RNA: UUUGAUUAAUAUGAUAUCGUUCUUUCUUCUCUGUAUUAUUAUUCUUUCUCGAUAUCAUAUUAAUCUUU | 0.00125 |
| Ie_S2_P5E.1_K5.1_C5.1_H5.1_[+2TTCC]_A5.1_F5.1_T5.1 (ssRNA) RNA: UUUGAUUAAUAUGAUAUCGUUCUUUCUUGUUCCUAUUAUUAUUCUUUCUCGAUAUCAUAUUAAUCUUU | 0.0376 |
| Ie_S2_P5E.1_K5.1_C5.1_H5.1_[+1CCCT]_A5.1_F5.1_T5.1 (ssRNA) RNA: UUUGAUUAAUAUGAUAUCGUUCUUUCUUCCCUGUAUUAUUAUUCUUUCUCGAUAUCAUAUUAAUCUUU | 0.00115 |
| Ie_S2_P5E.1_K5.1_C5.1_H5.1_[+2TCTC]_A5.1_F5.1_T5.1 (ssRNA) RNA: UUUGAUUAAUAUGAUAUCGUUCUUUCUUGUCUCUAUUAUUAUUCUUUCUCGAUAUCAUAUUAAUCUUU | 0.0348 |
| Ie_S2_P5E.1_K5.1_C5.1_H5.1_[+2CCCT]_A5.1_F5.1_T5.1 (ssRNA) RNA: UUUGAUUAAUAUGAUAUCGUUCUUUCUUGCCCUUAUUAUUAUUCUUUCUCGAUAUCAUAUUAAUCUUU | 1.17 |
| Ie_S2_P5E.1_K5.1_C5.1_H5.1_[+3TCTC]_A5.1_F5.1_T5.1 (ssRNA) RNA: UUUGAUUAAUAUGAUAUCGUUCUUUCUUGUUCUCAUUAUUAUUCUUUCUCGAUAUCAUAUUAAUCUUU | 0.0563 |
| Ie_S2_P5E.1_K5.1_C5.1_H5.1_[+3CCTC]_A5.1_F5.1_T5.1 (ssRNA) RNA: UUUGAUUAAUAUGAUAUCGUUCUUUCUUGUCCUCAUUAUUAUUCUUUCUCGAUAUCAUAUUAAUCUUU | 0.127 |
| Ie_S2_P5E.1_K5.1_C5.1_H5.1_[+1TCTC]_A5.1_F5.1_T5.1 (ssRNA) RNA: UUUGAUUAAUAUGAUAUCGUUCUUUCUUUCUCGUAUUAUUAUUCUUUCUCGAUAUCAUAUUAAUCUUU | 0.245 |
| Ie_S2_P5E.1_K5.1_C5.1_H5.1_[+2CCTC]_A5.1_F5.1_T5.1 (ssRNA) RNA: UUUGAUUAAUAUGAUAUCGUUCUUUCUUGCCUCUAUUAUUAUUCUUUCUCGAUAUCAUAUUAAUCUUU | 1.1 |
